Results: patent publication US20230340152A1 (published 2023)
Changes are numbered by the printed parent chain. In names and notes the source's numbering stands.

Key:
[1] = biological target: T1, KO_Linker CD73 chimera (human; chicken, UniProt P21589 27-553); assay: SPR (ProteOn), CD73 variant immobilized on HTG chip
T1 construct: also called KO_292-310; linker region-swapped CD73
T1 chain: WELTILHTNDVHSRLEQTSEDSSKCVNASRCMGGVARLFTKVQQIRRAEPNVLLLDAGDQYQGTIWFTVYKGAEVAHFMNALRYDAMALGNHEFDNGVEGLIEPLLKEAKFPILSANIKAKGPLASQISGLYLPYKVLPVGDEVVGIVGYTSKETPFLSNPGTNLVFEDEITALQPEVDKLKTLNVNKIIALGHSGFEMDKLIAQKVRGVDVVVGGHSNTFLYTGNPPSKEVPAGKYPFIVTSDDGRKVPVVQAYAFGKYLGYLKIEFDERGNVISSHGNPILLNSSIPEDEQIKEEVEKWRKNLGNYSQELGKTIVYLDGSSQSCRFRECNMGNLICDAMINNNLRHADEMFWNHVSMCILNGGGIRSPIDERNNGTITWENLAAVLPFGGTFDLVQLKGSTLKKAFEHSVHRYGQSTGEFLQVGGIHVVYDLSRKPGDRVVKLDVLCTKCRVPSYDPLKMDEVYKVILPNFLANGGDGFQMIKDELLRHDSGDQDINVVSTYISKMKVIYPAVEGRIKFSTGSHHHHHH

[2] = biological target: T2, Cynomolgus CD73 ECD (cynomolgus, UniProt A0A2K5V5U7 27-549); assay: SPR (Proteon)
T2 construct: extracellular domain; also called cyno CD73
T2 sequence: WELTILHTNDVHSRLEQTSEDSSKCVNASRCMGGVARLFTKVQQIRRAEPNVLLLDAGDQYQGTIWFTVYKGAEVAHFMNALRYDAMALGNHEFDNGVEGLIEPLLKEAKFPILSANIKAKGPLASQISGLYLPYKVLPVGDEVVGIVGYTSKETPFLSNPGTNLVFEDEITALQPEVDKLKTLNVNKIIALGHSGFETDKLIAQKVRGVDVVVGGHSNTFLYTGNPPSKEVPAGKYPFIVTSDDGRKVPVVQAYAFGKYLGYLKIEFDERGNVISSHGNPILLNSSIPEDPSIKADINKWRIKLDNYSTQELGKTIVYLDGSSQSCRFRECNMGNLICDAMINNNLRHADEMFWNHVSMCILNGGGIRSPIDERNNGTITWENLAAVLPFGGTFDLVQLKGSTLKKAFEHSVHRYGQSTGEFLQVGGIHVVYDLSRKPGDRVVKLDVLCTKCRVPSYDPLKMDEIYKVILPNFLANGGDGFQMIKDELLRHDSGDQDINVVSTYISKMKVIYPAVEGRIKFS

[3] = biological target: T3, Murine CD73 on cells (4T1, Jurkat mCD73 knock-in) (murine, UniProt Q61503 29-551); assay: cell-based or functional assay
T3 sequence (looked up): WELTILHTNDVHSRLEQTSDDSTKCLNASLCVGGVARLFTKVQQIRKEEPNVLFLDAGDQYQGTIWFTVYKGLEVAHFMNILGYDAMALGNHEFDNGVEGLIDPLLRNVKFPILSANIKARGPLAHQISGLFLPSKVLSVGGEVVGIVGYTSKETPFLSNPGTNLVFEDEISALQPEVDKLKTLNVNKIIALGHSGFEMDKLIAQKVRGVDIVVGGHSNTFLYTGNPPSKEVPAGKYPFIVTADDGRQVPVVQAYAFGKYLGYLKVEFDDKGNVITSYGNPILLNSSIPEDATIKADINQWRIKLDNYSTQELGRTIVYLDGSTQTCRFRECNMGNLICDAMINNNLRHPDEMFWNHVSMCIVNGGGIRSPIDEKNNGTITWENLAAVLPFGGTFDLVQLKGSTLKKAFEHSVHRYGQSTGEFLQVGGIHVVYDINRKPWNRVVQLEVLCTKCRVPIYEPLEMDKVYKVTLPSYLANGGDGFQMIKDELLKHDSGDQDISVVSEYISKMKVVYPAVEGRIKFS

[4] = biological target: T4, Human CD73 on cells (MDA-MB-231, Jurkat CD73 knock-in, NCI-H322) (human, UniProt P21589 27-549); assay: cell-based or functional assay
T4 sequence: T2 sequence with T199M, A350T, I466V

B1: MEDI9447 (antibody, human IgG1, lambda, V domains shown)
VH: EVQLLESGGGLVQPGGSLRLSCAASGFTFSSYAYSWVRQAPGKGLEWVSAISGSGGRTYYADSVKGRFTISRDNSKNTLYLQMNSLRAEDTAVYYCARLGYGRVDEWGRGTLVTVSS
VL: QSVLTQPPSASGTPGQRVTISCSGSLSNIGRNPVNWYQQLPGTAPKLLIYLDNLRLSGVPDRFSGSKSGTSASLAISGLQSEDEADYYCATWDDSHPGWTFGGGTKLTVLG
notes: Human IgG1-TM (L234F, L235E, P331S), lambda light chain; also called clone 10.3 antibody; 73combo3
Binder B1 has a Kd [1] of 4.14 pM, a koff [1] of 2.31e-05 s⁻¹ and a kon [1] of 5.7e+06 M⁻¹ s⁻¹. For the same binder, the Kd [2] was 7 pM, the “FabZAP internalization, EC50, 4T1” value [3] was 18.5 pM and the “FabZAP internalization, maximum toxicity, 4T1” value [3] was 97%. For the same binder, the “FabZAP internalization, EC50, MDA-MB-231” value [4] was 3.5 pM and the “FabZAP internalization, maximum toxicity, MDA-MB-231” value [4] was 97%.
